Assays:
[1] = target: T1, TNFR2-Fas chimeric receptor (TNFR2-ED and Fas) on mouse embryonic fibroblasts (UniProt P20333 23-257; P25445 191-335); assay: indirect immunofluorescence flow cytometry on transfected mouse embryonic fibroblasts
T1 construct: extracellular domain;domain: cytoplasmic domain; Stably expressed on mouse embryonic fibroblasts
T1 sequence (looked up): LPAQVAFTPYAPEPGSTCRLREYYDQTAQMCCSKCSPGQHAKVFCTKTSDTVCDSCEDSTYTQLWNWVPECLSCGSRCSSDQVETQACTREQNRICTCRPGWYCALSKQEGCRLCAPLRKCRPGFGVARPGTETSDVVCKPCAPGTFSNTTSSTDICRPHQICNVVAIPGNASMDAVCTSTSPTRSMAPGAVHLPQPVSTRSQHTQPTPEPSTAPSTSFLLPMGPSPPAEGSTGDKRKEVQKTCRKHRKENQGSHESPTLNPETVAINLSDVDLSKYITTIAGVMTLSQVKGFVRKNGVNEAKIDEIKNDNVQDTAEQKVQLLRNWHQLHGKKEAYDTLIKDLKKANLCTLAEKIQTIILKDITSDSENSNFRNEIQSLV
Procedure: These transfectants were incubated on ice for two hours with 2.5 μg/ml of IZI-06.1-Fab (A-C, E, white histograms), the TNFR1-specific antibody mAb225 (D and F, white histograms), the TNFR2-specific antibody 80M2 (B, white+bold histogram) or were only treated with secondary antibodies as control (gray histograms). The incubation buffer was PBA (PBS+0.05% bovine serum albumin+0.02% NaN3). Cells were incubated with FITC-labeled secondary antibodies (80M2 and mAb225: Goat anti-murine IgG; IZI-06.1 Fab: Goat anti-HIS-tag) and cells were analyzed by flow cytometry. Cells were gated for viable cells and total fluorescence intensities (MnX) are given for each antibody. (Con=control values).
A His-tag positive IZI-06.1-Fab is used to determine specificity of TNFR1 binding or TNFR1-Fas binding, respectively as well as for characterization of the epitope recognized by the antibody derivative. […] This construct, however, is readily detected by another TNFR1-specific mab, mab225 (FIG. 7D).

[2] = target: T2, TNFR1-Fas chimeric receptor (extracellular domain of TNFR1 and cytoplasmic domain of death receptor Fas) on … (human, UniProt P19438 30-211; P25445 191-335); assay: saturation binding of 125I-labelled Fab to TNFR1-Fas positive mouse fibroblasts on ice, one-site hyperbola and Scatchard plot
T2 construct: extracellular domain;domain: cytoplasmic domain; Stably expressed on mouse embryonic fibroblasts; also called TNFR1-Fas chimera
T2 sequence (looked up): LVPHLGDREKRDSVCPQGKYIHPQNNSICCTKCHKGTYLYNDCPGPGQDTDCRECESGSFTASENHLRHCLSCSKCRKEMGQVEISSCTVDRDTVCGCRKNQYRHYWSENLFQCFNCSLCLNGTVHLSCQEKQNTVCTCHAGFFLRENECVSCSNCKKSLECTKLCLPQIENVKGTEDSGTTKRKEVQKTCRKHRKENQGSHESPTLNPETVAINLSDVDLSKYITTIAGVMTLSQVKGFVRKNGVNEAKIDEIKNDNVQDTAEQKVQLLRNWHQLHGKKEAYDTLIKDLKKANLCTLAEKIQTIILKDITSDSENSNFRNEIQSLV
Procedure: Nonspecific binding has been subtracted.
To determine the affinity (KD value) of IZI-06.1 Fab, 200.000 TNFR1-Fas positive cells are incubated on ice for three hours with increasing concentrations of labelled IZI-06.1 (2.5-50 ng in a total volume of 150 μl). As binding buffer, phosphate buffered saline+2% fetal calf serum+0.02% NaN₃ is used. Non-specific binding is determined by co-incubating cells with the 180-fold respective concentration of unlabelled IZI-06.1. Bound ¹²⁵I-Fab is determined with a gamma-counter and resulting data is used to fit a one-site binding hyperbola that contains the saturation binding constant KD: […]

binding result [1]: no binding (tested: 2.5 µg/ml)
B1: IZI-06.1 Fab (Fab, V domains shown)
VH: QVQLVQSGAEVKKPGSSVKVSCKASGYTFTDFYINWVRQAPGQGLEWIGEIYPYSGHAYYNEKFKARVTITADKSTSTAYMELSSLRSEDTAVYYCARWDFLDYWGQGTTVTVSS
VL: DIVMTQSPLSLPVTPGEPASISCRSSQSLLHSNGNTYLHWYLQKPGQSPQLLIYTVSNRFSGVPDRFSGSGSGTDFTLKISRVEAEDVGVYYCSQSTHVPYTFGGGTKVEIKR
modifications: 125I-labelled (chloramine T method) in the saturation binding study
notes: Fab expressed in the E. coli periplasm; the pelB leader is removed; also called humanized H398-Fab; Fab IZI-06.1; not shown: CH1 domain of the human immunoglobulin gamma1 heavy chain
Kd [2]: 0.778 nM
